According to patent publication US20110151538A1:

Target: CBM-Coh (carbohydrate-binding module and type-I cohesin from C. thermocellum CipA) (Clostridium thermocellum)
Experiment: ELISA, plates coated with CBM-Coh; wtDoc-Xyn in 10 mM EDTA against wtDoc-Xyn in 1 mM CaCl2

## wtDoc-Xyn (wild-type C. thermocellum Cel48S dockerin fused to the N-terminus of G. stearothermophilus xylanase T-6, C-terminal His tag)
  ΔΔG (in EDTA relative to Ca2+): 2.01 kcal/mol
